Laboratory results reported in patent US20090280138A1 (OXFORD BIOMEDICA UK, published 2009).

What was measured:
Assay in all cases: iTopia peptide binding assay
[1] = target: T1, MHC class I allele A*0101 (bound via biotin to streptavidin-coated plate)
T1 construct: iTopia MHC class I monomer on the plate; placeholder peptide and b2M removed, then reconstituted with test peptide and fresh b2M; also called A1; HLA A1
Protocol: (§1) The 9 mers were tested for Peptide Binding, Off Rate and Affinity using iTopia Epitope Discovery System in accordance with the manufacturer's instructions. Briefly, 96 well microtitre plates coated with MHC molecules representing different MHC alleles are used to identify candidate peptides. […] Determinations are performed in duplicate using an ELISA plate reader and included allele specific positive controls.
(§2) i) Peptide Binding—This assay measures the ability of individual peptides to bind to the MHC molecules under standardized optimal binding conditions. The assay is performed for all the test peptides across the selected MHC alleles. The test peptides identified as “binders” are characterized further in terms of affinity and dissociation experiments.

[2] = target: T2, MHC class I allele A*0201 (bound via biotin to streptavidin-coated plate)
T2 construct: iTopia MHC class I monomer on the plate; placeholder peptide and b2M removed, then reconstituted with test peptide and fresh b2M; also called A2; HLA A2
Protocol: as §1, §2

[3] = target: T3, MHC class I allele A*0301 (bound via biotin to streptavidin-coated plate)
T3 construct: iTopia MHC class I monomer on the plate; placeholder peptide and b2M removed, then reconstituted with test peptide and fresh b2M; also called A3; HLA A3
Protocol: as §1, §2

[4] = target: T4, MHC class I allele B*0702 (bound via biotin to streptavidin-coated plate)
T4 construct: iTopia MHC class I monomer on the plate; placeholder peptide and b2M removed, then reconstituted with test peptide and fresh b2M; also called B7; HLA B7
Protocol: as §1, §2

Binder	% of positive control peptide binding [1]	% of positive control peptide binding [2]	% of positive control peptide binding [3]	% of positive control peptide binding [4]
GMVVAALLA (also called Peptide No 99) [5T4 9 mer peptide 99 GMVVAALLA]	0%	71%	0%	0%
PLADLSPFA (also called Peptide No 77) [5T4 9 mer peptide 77 PLADLSPFA]	1%	67%	0%	10%
AFSGSNASV (also called Peptide No 81) [5T4 9 mer peptide 81 AFSGSNASV]	2%	55%	2%	14%
RQLDLSHNP (also called Peptide No 73) [5T4 9 mer peptide 73 RQLDLSHNP]	2%	8%	2%	4%
SLRQLDLSH (also called Peptide No 72) [5T4 9 mer peptide 72 SLRQLDLSH]	0%	6%	11%	13%
ERQNRSFEG (also called Peptide No 95) [5T4 9 mer peptide 95 ERQNRSFEG]	0%	1%	1%	1%
SGSNASVSA (also called Peptide No 82) [5T4 9 mer peptide 82 SGSNASVSA]	5%	15%	3%	11%
EDERQNRSF (also called Peptide No 94) [5T4 9 mer peptide 94 EDERQNRSF]	0%	2%	4%	4%
NHIVPPEDE (also called Peptide No 91) [5T4 9 mer peptide 91 NHIVPPEDE]	6%	11%	3%	5%
HNPLADLSP (also called Peptide No 76) [5T4 9 mer peptide 76 HNPLADLSP]	5%	7%	3%	5%
PPEDERQNR (also called Peptide No 93) [5T4 9 mer peptide 93 PPEDERQNR]	0%	2%	0%	0%
PFAFSGSNA (also called Peptide No 80) [5T4 9 mer peptide 80 PFAFSGSNA]	0%	13%	3%	7%
ILNHIVPPE (also called Peptide No 90) [5T4 9 mer peptide 90 ILNHIVPPE]	5%	63%	4%	7%
IVPPEDERQ (also called Peptide No 92) [5T4 9 mer peptide 92 IVPPEDERQ]	6%	12%	3%	3%
VSAPSPLVE (also called Peptide No 85) [5T4 9 mer peptide 85 VSAPSPLVE]	3%	13%	7%	3%
VVAALLAGR (also called Peptide No 100) [5T4 9 mer peptide 100 VVAALLAGR]	9%	11%	49%	7%
